The results in this text go back to patent US20240190968A1.

This experiment addresses Cynomolgus monkey B7H6 protein overexpressed in CHO-K1 cells (Cynomolgus monkey). The experiment in a line: flow cytometry on CHO-K1-cyno B7H6 cells, Alexa-647 mouse anti-human IgG-Fc secondary antibody, binding ratio (%). Background: Flow cytometry measures light scatter and fluorescence of single cells or particles in a stream.

Cynomolgus monkey B7H6 protein overexpressed in CHO-K1 cells (Cynomolgus monkey), sequence (chain, as listed by the source limits assumed, form in doubt): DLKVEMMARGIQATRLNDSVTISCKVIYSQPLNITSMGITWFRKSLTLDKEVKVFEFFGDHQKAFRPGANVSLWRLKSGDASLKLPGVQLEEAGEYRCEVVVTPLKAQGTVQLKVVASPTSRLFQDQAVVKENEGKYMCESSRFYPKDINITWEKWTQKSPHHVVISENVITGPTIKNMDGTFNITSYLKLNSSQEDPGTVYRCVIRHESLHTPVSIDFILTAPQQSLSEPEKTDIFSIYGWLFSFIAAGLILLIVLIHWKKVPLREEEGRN

B1: humanized antibody h12G4 (antibody, human IgG1, kappa, V domains shown)
VH: EVQLVQSGAEVKKPGASVKVSCKASGYTFTDYNMDWVRQAPGKGLEWIGDINPNNGGTLYNQKFRGRVTLTVDKSISTAYMELSRLRSDDTAVYYCARSEVFYGNYADYWGQGTTVTVSS
VL: DIVLTQTPLSLSVTPGQPASISCKASQSVDYDGDSYMNWYLQKPGQPPQLLIYAASTLHSGVPDRFSGSGSGTDFTLKISRVEAEDVGVYYCQQSKEDPRTFGQGTKLEIKR
Take B1: the half-maximal effective concentration (EC50 (read off the curve)) was 0.7 µg/mL.

B2: humanized antibody h12F5 (antibody, human IgG1, kappa, V domains shown)
VH: EVQLVQSGAEVKKPGASVKVSCKASGYTFTSYYMYWVRQAPGQGLEWIGEINPSNGGTNFNEKFKSRVTLTVDKSISTAYMELSRLRSDDTAVYYCTRTLYYGNDWYFDVWGQGTTVTVSS
VL: EIVLTQSPDFQSVTPKEKVTITCSASSSVNYMHWYQQKPDQSPKRLIYDTSKLASGVPSRFSGSGSGTDYTLTINSLEAEDAATYYCQQWSSNPVTFGQGTKLEIKR
Consider B2, for which the half-maximal effective concentration (EC50 (read off the curve)) came to 0.2 µg/mL.

In general, EC50 (read off the curve) refers to the concentration needed to bring the measured effect to its halfway point.
